Experimental data reported in patent US7977317B2, “Compositions and methods for modulating blood-brain barrier transport” (Raptor Pharmaceutical Inc., priority 2001, dated 2011).

Assay: In situ brain perfusion with capillary depletion
Type: in vivo
Settings: mice, 10 min perfusion, 10 nM [125I]-protein (FIG. 11b)
Method: FIG. 11 examines the accumulation and transcytosis of p97. FIG. 11a, of [^125I]-p97, [^125I]-BSA and [^125I]-holo-transferrin one hour after i.v. injection. The radioactivity in brain was compared between the three compounds. (n=3); FIG. 11b, Accumulation of p97 and transferrin into the mouse brain parenchyma. In situ brain perfusion was performed with human [^125I]-p97 or [^125I]-holo-transferrin at a final concentration of 10 nM via a catheter inserted in the right common carotid artery. The volume of distribution (VD) of [^125I]-proteins were obtained in the whole brain homogenate (white bars), in brain capillaries (solid bars) and in brain parenchyma (hatched bars) after isolation of the right hemisphere and capillary depletion. Results were obtained for p97 (n=10) and for holo-transferrin (n=6); FIG. 11c, Transcytosis of p97 across BBCEC monolayers. Transcytosis experiments were performed 37° C. (open circles) and 4° C. (closed circles) with BBCEC monolayers. […] Apical-to-basal and basal-to-apical transport of [^125I]-p97 (25 nM) was measured for 2 hrs at 37° C. At the end of the experiment, [^125I]-p97 was assessed in the lower or upper chambers of each well by TCA precipitation (n=4).
A. Brain uptake and in situ brain perfusion. […] The serum and brain samples were collected and the levels of radioactivity were measured. […]

Q: For “transferrin: transferrin (Tf), iron-binding serum protein used as comparator and competitor”, which “Apparent VD in the brain parenchyma” value is on record?
A: 2.4 ml/100 g
